The text below walks through data of publication PMC7699706, “Responses of DNA Mismatch Repair Proteins to a Stable G-Quadruplex Embedded into a DNA Duplex Structure”.

Series [1] deals with T1, ecMutL (Escherichia coli, UniProt P23367 1-615). As to the kind of experiment: EMSA; no nucleotide, on ice, 100 nM DNA; MutS EMSA: 5 nM DNA, 20 mM HEPES-KOH pH 7.9, 5 mM MgCl2, 120 mM KCl, 0.5 mg/mL BSA, 1 mM nucleotide, 37 C 15 min; MutL EMSA: 100 nM DNA, 20 mM HEPES pH 8.0 (10). The note with it: protein: recombinant; chain copies: 2; label: 3'-TAMRA on strand 2 (95G4); blunt; 19-nt insert in strand 2 folded as intramolecular parallel G4 within duplex. In general terms: A gel shift assay detects complexes by their altered migration in electrophoresis.
T1 sequence (P23367 whole entry): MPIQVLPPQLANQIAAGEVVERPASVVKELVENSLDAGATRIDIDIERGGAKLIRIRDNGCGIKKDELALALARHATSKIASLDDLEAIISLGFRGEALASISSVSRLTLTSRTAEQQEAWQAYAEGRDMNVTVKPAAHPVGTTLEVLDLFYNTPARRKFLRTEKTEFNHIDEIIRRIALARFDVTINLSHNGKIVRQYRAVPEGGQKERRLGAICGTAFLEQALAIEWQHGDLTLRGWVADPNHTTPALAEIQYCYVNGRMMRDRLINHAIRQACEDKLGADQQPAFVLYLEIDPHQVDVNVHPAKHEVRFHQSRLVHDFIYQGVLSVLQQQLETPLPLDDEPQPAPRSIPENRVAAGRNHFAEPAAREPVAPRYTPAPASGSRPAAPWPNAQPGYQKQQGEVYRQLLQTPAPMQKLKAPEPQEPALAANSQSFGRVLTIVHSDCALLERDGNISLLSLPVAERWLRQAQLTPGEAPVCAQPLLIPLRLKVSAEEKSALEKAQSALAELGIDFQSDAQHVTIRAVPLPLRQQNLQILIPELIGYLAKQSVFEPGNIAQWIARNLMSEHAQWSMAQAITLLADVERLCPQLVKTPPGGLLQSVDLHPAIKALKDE

For series [2], the target named is T2, ecMutS (Escherichia coli, UniProt P23909 1-853).
T2 sequence: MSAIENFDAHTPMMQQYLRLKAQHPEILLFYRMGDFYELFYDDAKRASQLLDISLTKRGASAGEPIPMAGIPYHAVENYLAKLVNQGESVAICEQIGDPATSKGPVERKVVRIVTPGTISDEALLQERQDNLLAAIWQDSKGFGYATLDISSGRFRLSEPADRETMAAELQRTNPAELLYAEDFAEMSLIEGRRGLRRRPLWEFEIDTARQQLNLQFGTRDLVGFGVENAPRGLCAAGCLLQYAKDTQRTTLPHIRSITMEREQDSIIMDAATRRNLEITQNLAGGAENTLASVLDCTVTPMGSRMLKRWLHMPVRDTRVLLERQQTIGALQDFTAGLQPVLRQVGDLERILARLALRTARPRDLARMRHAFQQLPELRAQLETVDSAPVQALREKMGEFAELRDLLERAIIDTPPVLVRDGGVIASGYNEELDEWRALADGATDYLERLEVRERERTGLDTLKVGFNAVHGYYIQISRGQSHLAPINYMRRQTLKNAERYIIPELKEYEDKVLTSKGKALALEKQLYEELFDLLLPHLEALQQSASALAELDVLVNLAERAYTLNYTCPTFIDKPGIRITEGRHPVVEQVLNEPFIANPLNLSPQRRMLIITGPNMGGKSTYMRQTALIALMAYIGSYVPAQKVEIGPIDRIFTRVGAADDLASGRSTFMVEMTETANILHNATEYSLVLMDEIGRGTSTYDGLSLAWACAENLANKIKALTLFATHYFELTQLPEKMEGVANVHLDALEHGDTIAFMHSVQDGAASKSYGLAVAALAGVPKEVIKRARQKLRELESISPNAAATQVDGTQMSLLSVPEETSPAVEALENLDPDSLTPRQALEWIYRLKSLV
As to the kind of experiment: EMSA; 1 mM ADP, 5 mM MgCl2; MutS EMSA: 5 nM DNA, 20 mM HEPES-KOH pH 7.9, 5 mM MgCl2, 120 mM KCl, 0.5 mg/mL BSA, 1 mM nucleotide, 37 C 15 min; MutL EMSA: 100 nM DNA, 20 mM HEPES pH 8.0 (10). The note with it: protein: recombinant, chain copies: 2, blunt.

The target of series [3] is T3, rsMutS (Rhodobacter sphaeroides strain 2.4.1, UniProt Q3IYI5 1-875).
T3 sequence: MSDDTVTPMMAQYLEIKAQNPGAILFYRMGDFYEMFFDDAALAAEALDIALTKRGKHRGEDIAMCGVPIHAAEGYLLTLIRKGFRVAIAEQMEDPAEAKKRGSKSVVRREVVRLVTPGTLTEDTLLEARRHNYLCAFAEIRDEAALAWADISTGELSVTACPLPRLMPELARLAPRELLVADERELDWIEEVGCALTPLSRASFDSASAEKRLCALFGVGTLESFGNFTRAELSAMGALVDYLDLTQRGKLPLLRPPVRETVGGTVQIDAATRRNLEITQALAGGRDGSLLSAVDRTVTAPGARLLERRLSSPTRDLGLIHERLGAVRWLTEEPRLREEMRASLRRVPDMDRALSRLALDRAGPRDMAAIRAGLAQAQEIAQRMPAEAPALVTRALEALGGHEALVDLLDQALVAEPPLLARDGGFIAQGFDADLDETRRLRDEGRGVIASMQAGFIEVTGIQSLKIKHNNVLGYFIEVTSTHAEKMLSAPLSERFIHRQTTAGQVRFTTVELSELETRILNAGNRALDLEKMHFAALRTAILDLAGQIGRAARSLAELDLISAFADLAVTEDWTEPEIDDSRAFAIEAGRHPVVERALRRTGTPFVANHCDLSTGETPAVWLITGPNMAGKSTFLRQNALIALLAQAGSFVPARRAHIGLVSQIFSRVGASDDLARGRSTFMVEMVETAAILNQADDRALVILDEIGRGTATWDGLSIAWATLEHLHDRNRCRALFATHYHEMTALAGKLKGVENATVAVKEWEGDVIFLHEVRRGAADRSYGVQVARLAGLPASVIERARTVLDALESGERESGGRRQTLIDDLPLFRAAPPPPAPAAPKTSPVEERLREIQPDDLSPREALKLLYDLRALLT
The series is described as above. The following applies: protein: recombinant, tags: N-terminal His6 (pET15b), chain copies: 2, blunt.

The target in series [4] is T2, ecMutS. As to the kind of experiment: EMSA; 1 mM ATP, 5 mM MgCl2; MutS EMSA: 5 nM DNA, 20 mM HEPES-KOH pH 7.9, 5 mM MgCl2, 120 mM KCl, 0.5 mg/mL BSA, 1 mM nucleotide, 37 C 15 min; MutL EMSA: 100 nM DNA, 20 mM HEPES pH 8.0 (10). The note with it: protein: recombinant, chain copies: 2, blunt.
Series [5] addresses T3, rsMutS. The series is described as above. The note with it: protein: recombinant, tags: N-terminal His6 (pET15b), chain copies: 2, blunt.
The target of series [6] is T2, ecMutS. As to the kind of experiment: EMSA; 1 mM ATPgS, 5 mM MgCl2; MutS EMSA: 5 nM DNA, 20 mM HEPES-KOH pH 7.9, 5 mM MgCl2, 120 mM KCl, 0.5 mg/mL BSA, 1 mM nucleotide, 37 C 15 min; MutL EMSA: 100 nM DNA, 20 mM HEPES pH 8.0 (10). The following applies: protein: recombinant; chain copies: 2; label: 3'-TAMRA on strand 2 (95G4); blunt; 19-nt insert in strand 2 folded as intramolecular parallel G4 within duplex.

Series [7] addresses T3, rsMutS. The series is described as above. The following applies: protein: recombinant; tags: N-terminal His6 (pET15b); chain copies: 2; label: 3'-TAMRA on strand 2 (95G4); blunt; 19-nt insert in strand 2 folded as intramolecular parallel G4 within duplex.
The target of series [8] is T1, ecMutL. As to the kind of experiment: EMSA; no nucleotide, on ice, 100 nM DNA; MutS EMSA: 5 nM DNA, 20 mM HEPES-KOH pH 7.9, 5 mM MgCl2, 120 mM KCl, 0.5 mg/mL BSA, 1 mM nucleotide, 37 C 15 min; MutL EMSA: 100 nM DNA, 20 mM HEPES pH 8.0 (10). The following applies: protein: recombinant, chain copies: 2, blunt.
[9] abbreviates: label: 3'-TAMRA on strand 2 (95G4), 19-nt insert in strand 2 folded as intramolecular parallel G4 within duplex.
Setting [10] is: label: 3'-TAMRA on strand 2 (95(GT)8), 19-nt unstructured (GT)8 loop in strand 2.
[11] abbreviates: label: 3'-TAMRA on strand 2 (76T), perfect duplex.
Setting [12] is: label: 3'-TAMRA on strand 2 (76T), single G/T mismatch.

B1: 76/95G4-A/T (mixed)
DNA 1: TCCTTTCGCGCTTGGATCCTATGAGCGTTACTCGAGCATATGGCTCAGCTGCCAAGCACCAGTGTCAGCGTCCTAT
DNA 2: ATAGGACGCTGACACTGGTGCTTGGCAGCTGAGCCATATTTGGGTGGGTGGGTGGGTTGCTCGAGTAACGCTCATAGGATCCAAGCGCGAAAGGA
modifications: N6-methyl-dA at position 16 of strand 1 (Gm6ATC)
For the molecule B1, the Kd (usually the concentration at which binding is half-saturated) was around 200 nM with ecMutL [1]; 23 ± 5 nM in the series with ecMutS [2] (setting [9]); 23 ± 3 nM with rsMutS [3] (setting [9]); 32 ± 4 nM with ecMutS [4] (setting [9]); 23 ± 3 nM in the series with rsMutS [5] (setting [9]); 31 ± 4 nM in the series with ecMutS [6]. Also, the Kd in the series with rsMutS [7] was determined as 46 ± 5 nM.

B2: 76/95(GT)8-A/T (mixed)
DNA 1: TCCTTTCGCGCTTGGATCCTATGAGCGTTACTCGAGCATATGGCTCAGCTGCCAAGCACCAGTGTCAGCGTCCTAT
DNA 2: ATAGGACGCTGACACTGGTGCTTGGCAGCTGAGCCATATTTGTGTGTGTGTGTGTGTTGCTCGAGTAACGCTCATAGGATCCAAGCGCGAAAGGA
modifications: N6-methyl-dA at position 16 of strand 1 (Gm6ATC)
On to B2, for which the Kd was 32 ± 3 nM with ecMutS [2] (setting [10]), 31 ± 3 nM with rsMutS [3] (setting [10]), 44 ± 6 nM in the series with ecMutS [4] (setting [10]) and 43 ± 5 nM with rsMutS [5] (setting [10]). In addition, the binding signal with ecMutL [8] (setting [10]) was 1.9 fold lower binding extent than 76/95G4-A/T at 0.1 uM ecMutL.

B3: 76/76-A/T (dsDNA)
DNA 1: TCCTTTCGCGCTTGGATCCTATGAGCGTTACTCGAGCATATGGCTCAGCTGCCAAGCACCAGTGTCAGCGTCCTAT
DNA 2: ATAGGACGCTGACACTGGTGCTTGGCAGCTGAGCCATATGCTCGAGTAACGCTCATAGGATCCAAGCGCGAAAGGA
modifications: N6-methyl-dA at position 16 of strand 1 (Gm6ATC)
For B3, the Kd in the series with ecMutS [2] (setting [11]) turned out to be 38 ± 4 nM; with rsMutS [3] (setting [11]), 51 ± 4 nM; with ecMutS [4] (setting [11]), 50 ± 10 nM; with rsMutS [5] (setting [11]), 80 ± 30 nM. The binding signal with ecMutL [8] (setting [11]) is > 3.7 fold lower binding extent than 76/95G4-A/T at 0.1 uM ecMutL (at least).

B4: 76/76-G/T (dsDNA)
DNA 1: TCCTTTCGCGCTTGGATCCTATGAGCGTTACTCGAGCATATGGCTCAGCTGCCAGGCACCAGTGTCAGCGTCCTAT
DNA 2: ATAGGACGCTGACACTGGTGCTTGGCAGCTGAGCCATATGCTCGAGTAACGCTCATAGGATCCAAGCGCGAAAGGA
modifications: N6-methyl-dA at position 16 of strand 1 (Gm6ATC)
Consider B4, for which the Kd was determined as 35 ± 3 nM with ecMutS [2] (setting [12]), 27 ± 4 nM with rsMutS [3] (setting [12]), 38 ± 4 nM with ecMutS [4] (setting [12]) and 60 ± 10 nM with rsMutS [5] (setting [12]). In the series with ecMutL [8] (setting [12]), the binding signal was > 3.7 fold lower binding extent than 76/95G4-A/T at 0.1 uM ecMutL (at least).
